# T1: mTREX2 (Mus musculus, UniProt Q9R1A9 1-236)
# T1 sequence: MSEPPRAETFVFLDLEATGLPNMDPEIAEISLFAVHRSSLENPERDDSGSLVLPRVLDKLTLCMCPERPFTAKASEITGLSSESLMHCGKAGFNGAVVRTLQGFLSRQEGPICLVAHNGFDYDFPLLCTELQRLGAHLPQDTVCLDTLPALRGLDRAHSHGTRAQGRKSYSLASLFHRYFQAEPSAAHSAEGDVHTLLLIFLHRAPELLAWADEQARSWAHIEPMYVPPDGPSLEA
# Key:
# mTREX2 [1] = target: T1, mTREX2; experiment: X-ray crystallography (2.7 A); 2 Mg2+ per active site; Co-crystallization: mTREX2 5-8 mg/ml (stock 50 mM Tris-HCl, 400 mM NaCl, pH 7.0) with DNA at molar ratio 1:1.2; crystallization conditions in Table S2 not in the material; conditions: protein: recombinant; tags: pET28a vector, TALON-purified (His tag implied); chain copies: 2; hairpin; 3' overhang 2 nt
# mTREX2 [2] = target: T1, mTREX2; experiment: X-ray crystallography (1.9 A); 2 Mg2+ per active site; Co-crystallization: mTREX2 5-8 mg/ml (stock 50 mM Tris-HCl, 400 mM NaCl, pH 7.0) with DNA at molar ratio 1:1.2; crystallization conditions in Table S2 not in the material; conditions: protein: recombinant; tags: pET28a vector, TALON-purified (His tag implied); chain copies: 2; hairpin; 1-nt unpaired 3' overhang, 4-nt unpaired 5' overhang; 2 DNAs per protein dimer
# [3] = target: the molecule itself; experiment: crystal structure; apo-mTREX2 at 1.9 Å, one dimer in the asymmetric unit; a dimer is also seen in the Y-shaped DNA complex and the product (dCMP) complex
binder,measurement,setting,value
GGCCCTCTTTAGGGCCTT (structured_DNA) [duplex DNA with 2-nt 3'-overhang (stem loop)],binding result,mTREX2 [1],binds
TGCCAGGCCCTCTTTAGGGCCTT (structured_DNA) [Y-shaped DNA (23-nt stem loop)],binding result,mTREX2 [2],binds
"mouse TREX2 (three prime repair exonuclease 2) (enzyme, TREX2, three prime repair exonuclease 2, mouse; NCBI Gene ID 24102; Cloned into pET28a and purified on a TALON column; Homodimer in the crystal and by gel filtration; also called mTREX2; apo-mTREX2; source: E. coli BL21-CodonPlus (DE3)-Rosetta, purified (HiTrap TALON, HiTrap Q, Superdex 75)) MSEPPRAETFVFLDLEATGLPNMDPEIAEISLFAVHRSSLENPERDDSGSLVLPRVLDKLTLCMCPERPFTAKASEITGLSSESLMHCGKAGFNGAVVRTLQGFLSRQEGPICLVAHNGFDYDFPLLCTELQRLGAHLPQDTVCLDTLPALRGLDRAHSHGTRAQGRKSYSLASLFHRYFQAEPSAAHSAEGDVHTLLLIFLHRAPELLAWADEQARSWAHIEPMYVPPDGPSLEA",stoichiometry N,[3],2

# Source: article PMC6294518, “Structural insights into the duplex DNA processing of TREX2” (Nucleic Acids Research, 2018)
